Measurements taken from patent publication US20230279089A1 (GlaxoSmithKline, published 2023).
Changes are numbered by the printed parent chain. Several values for one entry are separate records, joined by “and”; a condition that tells them apart may be missing. Equal values may be shown once.

Tests used:
[1] = molecular target: T1, Mouse BMP1-3: 126-707 (mouse, UniProt P98063 126-707); experiment: cell-based or functional assay
T1 sequence (looked up): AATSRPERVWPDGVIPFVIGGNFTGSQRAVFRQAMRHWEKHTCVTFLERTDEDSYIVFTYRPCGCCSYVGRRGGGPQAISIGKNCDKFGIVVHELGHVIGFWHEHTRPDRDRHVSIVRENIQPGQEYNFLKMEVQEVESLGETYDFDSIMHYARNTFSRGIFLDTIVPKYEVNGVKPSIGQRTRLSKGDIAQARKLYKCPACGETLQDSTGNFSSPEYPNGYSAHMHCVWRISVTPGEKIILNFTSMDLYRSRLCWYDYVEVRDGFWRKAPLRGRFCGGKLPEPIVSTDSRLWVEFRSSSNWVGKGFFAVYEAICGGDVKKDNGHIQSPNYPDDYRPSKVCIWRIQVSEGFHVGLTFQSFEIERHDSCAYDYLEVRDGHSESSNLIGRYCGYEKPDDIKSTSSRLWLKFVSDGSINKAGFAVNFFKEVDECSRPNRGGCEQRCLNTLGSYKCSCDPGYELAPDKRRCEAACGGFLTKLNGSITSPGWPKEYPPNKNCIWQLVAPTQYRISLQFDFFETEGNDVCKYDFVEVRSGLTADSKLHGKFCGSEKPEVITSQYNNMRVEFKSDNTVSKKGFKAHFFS

[2] = molecular target: T2, Human BMP1-1 (human, UniProt P13497-2 121-730, limits assumed); experiment: cell-based or functional assay
T2 sequence (looked up): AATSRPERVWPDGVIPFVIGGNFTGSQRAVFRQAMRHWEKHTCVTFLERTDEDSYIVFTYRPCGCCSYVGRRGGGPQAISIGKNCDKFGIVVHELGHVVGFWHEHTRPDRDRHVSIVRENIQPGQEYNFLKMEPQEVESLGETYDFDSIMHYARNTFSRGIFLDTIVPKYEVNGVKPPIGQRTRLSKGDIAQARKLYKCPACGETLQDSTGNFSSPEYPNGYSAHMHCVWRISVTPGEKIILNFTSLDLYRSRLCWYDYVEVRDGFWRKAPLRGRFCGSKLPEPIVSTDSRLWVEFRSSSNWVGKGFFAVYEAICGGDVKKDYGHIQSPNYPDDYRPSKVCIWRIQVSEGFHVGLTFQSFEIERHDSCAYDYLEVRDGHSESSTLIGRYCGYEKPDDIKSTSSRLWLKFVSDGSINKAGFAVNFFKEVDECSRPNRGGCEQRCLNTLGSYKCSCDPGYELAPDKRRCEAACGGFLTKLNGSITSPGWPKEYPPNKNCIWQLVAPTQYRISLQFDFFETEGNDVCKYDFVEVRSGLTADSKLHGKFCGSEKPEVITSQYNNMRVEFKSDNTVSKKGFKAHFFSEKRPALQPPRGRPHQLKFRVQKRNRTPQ

[3] = molecular target: T3, Human BMP1 CD+CUB1 truncated antigen (human, UniProt P13497 121-434, limits assumed); experiment: SPR, captured mAb, enzyme dilution buffer
T3 construct: domain: CD+CUB1
T3 sequence (looked up): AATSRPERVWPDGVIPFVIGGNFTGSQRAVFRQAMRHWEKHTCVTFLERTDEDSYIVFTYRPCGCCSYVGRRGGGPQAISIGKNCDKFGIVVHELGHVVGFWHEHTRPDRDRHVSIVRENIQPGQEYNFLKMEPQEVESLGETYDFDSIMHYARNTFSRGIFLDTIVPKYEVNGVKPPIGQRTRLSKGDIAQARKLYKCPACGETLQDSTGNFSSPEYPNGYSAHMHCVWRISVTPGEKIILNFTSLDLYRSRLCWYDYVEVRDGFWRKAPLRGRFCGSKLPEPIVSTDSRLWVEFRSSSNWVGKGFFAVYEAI

[4] = molecular target: T3, Human BMP1 CD+CUB1 truncated antigen; experiment: SPR, captured mAb, HBS-EP
[5] = molecular target: T4, Mouse BMP1 CD+CUB1 truncated antigen (mouse, UniProt P98063 126-439, limits assumed); experiment: SPR, captured mAb, HBS-EP
T4 construct: domain: CD+CUB1
T4 sequence (looked up): T3 sequence (looked up) with V99I, P134V, P178S, L247M, S279G
Protocol: (§1) Both antibodies 13Y039-4B06-4334 and 13Y039-3E07-2944 and the reverse chimeric antibodies were evaluated for binding to human TLL2 CD+CUB1 and mouse BMP1 CD+CUB1 truncated antigens by SPR on a BIACORE T200. Protein A/G was immobilised to a CM5 sensor chip via amine coupling and the antibodies were captured to the protein A/G surface. The antigens were passed over the captured antibody at various concentrations. The measured affinities to human TLL2 CD+CUB1 are shown in Table 2 and the measured affinities to mouse BMP1 CD+CUB1 are shown in Table 3.

[6] = molecular target: T5, Human TLL2 CD+CUB1 truncated antigen (human, UniProt Q9Y6L7 150-463, limits assumed); experiment: SPR, captured mAb, HBS-EP
T5 construct: domain: CD+CUB1
T5 sequence (looked up): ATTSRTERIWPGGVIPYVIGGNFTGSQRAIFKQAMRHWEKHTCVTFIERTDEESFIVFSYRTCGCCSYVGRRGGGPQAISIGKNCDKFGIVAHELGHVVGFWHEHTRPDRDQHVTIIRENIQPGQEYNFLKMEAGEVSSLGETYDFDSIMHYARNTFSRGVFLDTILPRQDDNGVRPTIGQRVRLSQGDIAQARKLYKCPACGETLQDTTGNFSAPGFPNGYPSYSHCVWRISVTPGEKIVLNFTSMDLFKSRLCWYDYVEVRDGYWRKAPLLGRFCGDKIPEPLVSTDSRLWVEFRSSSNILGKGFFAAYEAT
Protocol: as §1

B1: 13Y039-4B06-4334 human variable region on rat IgG2b LAGA Fc and rat Kappa (Compound C) (antibody)
heavy: QVQLVQSGAEVKKPGASVKVSCKASGYTFLGYYMSWVRQAPGQGLEWMGWINPLSGETNYAQKFQGRVTMTRDTSISTAYMELSRLRSDDTAVYYCARDTGELDGMNWYFDLWGRGTLVTVSSAQTTAPSVYPLAPGCGDTTSSTVTLGCLVKGYFPEPVTVTWNSGALSSDVHTFPAVLQSGLYTLTSSVTSSTWPSQTVTCNVAHPASSTKVDKKVERRNGGIGHKCPTCPTCHKCPVPELAGAPSVFIFPPKPKDILLISQNAKVTCVVVDVSEEEPDVQFSWFVNNVEVHTAQTQPREEQYNSTFRVVSALPIQHQDWMSGKEFKCKVNNKALPSPIEKTISKPKGLVRKPQVYVMGPPTEQLTEQTVSLTCLTSGFLPNDIGVEWTSNGHIEKNYKNTEPVMDSDGSFFMYSKLNVERSRWDSRAPFVCSVVHEGLHNHHVEKSISRPPGK
light: EIVLTQSPATLSLSPGERATLSCRASQSVSSYLAWYQQKPGQAPRLLIYDASNRATGIPARFSGSGSGTDFTLTISSLEPEDFAVYYCQQSDSWPPTFGGGTKVEIKRADAAPTVSIFPPSTEQLATGGASVVCLMNNFYPRDISVKWKIDGTERRDGVLDSVTDQDSKDSTYSMSSTLSLTKADYESHNLYTCEVVHKTSSSPVVKSFNRNEC
pKi, app, FRET enzyme activity, Mouse BMP1 [1]: 11.3 | pKi, app, FRET enzyme activity, Human BMP1 [2]: 11.8

B2: 13Y039-3E07-2944 human variable region on mouse IgG2a LAGA Fc, mouse cKappa (Compound B) (antibody)
heavy: QVQLQQWGAGLLKPSETLSLTCAVYGGSFFGDYWSWIRQPPGKGLEWIGEIDWSGATNYNPSLKSRVTISVDTSKNQFSLKLSSVTAADTAVYYCARGGSKELSFDIWGQGTMVTVSSAKTTAPSVYPLAPVCGDTTGSSVTLGCLVKGYFPEPVTLTWNSGSLSSGVHTFPAVLQSDLYTLSSSVTVTSSTWPSQSITCNVAHPASSTKVDKKIEPRGPTIKPCPPCKCPAPNLAGAPSVFIFPPKIKDVLMISLSPIVTCVVVDVSEDDPDVQISWFVNNVEVHTAQTQTHREDYNSTLRVVSALPIQHQDWMSGKEFKCKVNNKDLPAPIERTISKPKGSVRAPQVYVLPPPEEEMTKKQVTLTCMVTDFMPEDIYVEWTNNGKTELNYKNTEPVLDSDGSYFMYSKLRVEKKNWVERNSYSCSVVHEGLHNHHTTKSFSRTPGK
light: DIQMTQSPSSLSASVGDRVTITCQASQDIANYLNWYQQKPGKAPKLLIYDASNLETGVPSRFSGSGSGTDFTFTISSLQPEDIATYYCQQADTLPFTFGGGTKVEIKRADAAPTVSIFPPSSEQLTSGGASVVCFLNNFYPKDINVKWKIDGSERQNGVLNSWTDQDSKDSTYSMSSTLTLTKDEYERHNSYTCEATHKTSTSPIVKSFNRNEC
notes: Reverse chimera; also called 13Y039-3E07-2944, mIgG2a LAGA
Kd [3]: 0.07 nM | Kd [4]: 5.31 nM | Kd [5]: 2.66 nM and 6.2 nM | binding result [6]: no binding
